From patent US20100145007A1 (Janssen / Centocor, published 2010)

Legend:
human GPCR135 = target: T1, human GPCR135 (human, UniProt Q9NSD7 1-469); test: radioligand competition, 50 pM 125I-R3/I5 tracer, COS-7 cells transiently expressing human GPCR135
T1 construct: whole, on cells; also called SALPR
T1 sequence (looked up): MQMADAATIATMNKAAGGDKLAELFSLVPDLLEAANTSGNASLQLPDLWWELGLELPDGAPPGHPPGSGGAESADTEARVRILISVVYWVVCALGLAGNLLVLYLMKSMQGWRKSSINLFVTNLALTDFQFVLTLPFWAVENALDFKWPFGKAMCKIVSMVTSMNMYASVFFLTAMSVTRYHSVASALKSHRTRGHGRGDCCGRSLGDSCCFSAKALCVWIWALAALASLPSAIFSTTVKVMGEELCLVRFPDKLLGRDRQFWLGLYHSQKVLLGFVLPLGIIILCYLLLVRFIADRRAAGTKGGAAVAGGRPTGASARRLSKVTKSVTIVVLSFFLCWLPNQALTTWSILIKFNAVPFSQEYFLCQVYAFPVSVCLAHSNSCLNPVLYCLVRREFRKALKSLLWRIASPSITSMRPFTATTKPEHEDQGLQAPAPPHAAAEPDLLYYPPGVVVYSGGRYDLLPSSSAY
Excerpt: (§1) COS-7 cells in 24-well tissue culture plates transiently expressing GPCR135, GPCR142 or LGR7 were used in radioligand binding assays as described by Liu et al., 2005a, J. Biol. Chem., 280:292-300. ¹²⁵I-Relaxin-3/INSL5 (¹²⁵I-R3/I5), a radiolabeled chimeric peptide with the human relaxin-3 B-chain and the human INSL5 A-chain (Liu et al., 2005b), was used at a final concentration of 50 pM as the tracer to characterize the binding properties of all truncated relaxin-3 peptides for GPCR135 and GPCR142. ¹²⁵I-relaxin-2 (PerkinElmer Biosciences, Boston) was used at a final concentration of 50 pM to characterize the binding properties of the truncated peptides for the relaxin receptor (LGR7). The results were analyzed by GraphPad Prism 4.0 software (Graphpad, San Diego). The IC₅₀ values, which are the ligand concentrations that inhibited 50% of the maximum specific binding, were then calculated.

human GPCR142 = target: T2, human GPCR142 (human, UniProt Q8TDU9 1-374); test: radioligand competition, 50 pM 125I-R3/I5 tracer, COS-7 cells transiently expressing human GPCR142
T2 construct: whole, on cells
Excerpt: as §1

human LGR7 [1] = target: T3, human LGR7 (human, UniProt Q9HBX9 1-757); test: radioligand competition, 50 pM 125I-relaxin-2 tracer, COS-7 cells transiently expressing human LGR7
T3 construct: whole, on cells; also called relaxin receptor
T3 sequence (looked up): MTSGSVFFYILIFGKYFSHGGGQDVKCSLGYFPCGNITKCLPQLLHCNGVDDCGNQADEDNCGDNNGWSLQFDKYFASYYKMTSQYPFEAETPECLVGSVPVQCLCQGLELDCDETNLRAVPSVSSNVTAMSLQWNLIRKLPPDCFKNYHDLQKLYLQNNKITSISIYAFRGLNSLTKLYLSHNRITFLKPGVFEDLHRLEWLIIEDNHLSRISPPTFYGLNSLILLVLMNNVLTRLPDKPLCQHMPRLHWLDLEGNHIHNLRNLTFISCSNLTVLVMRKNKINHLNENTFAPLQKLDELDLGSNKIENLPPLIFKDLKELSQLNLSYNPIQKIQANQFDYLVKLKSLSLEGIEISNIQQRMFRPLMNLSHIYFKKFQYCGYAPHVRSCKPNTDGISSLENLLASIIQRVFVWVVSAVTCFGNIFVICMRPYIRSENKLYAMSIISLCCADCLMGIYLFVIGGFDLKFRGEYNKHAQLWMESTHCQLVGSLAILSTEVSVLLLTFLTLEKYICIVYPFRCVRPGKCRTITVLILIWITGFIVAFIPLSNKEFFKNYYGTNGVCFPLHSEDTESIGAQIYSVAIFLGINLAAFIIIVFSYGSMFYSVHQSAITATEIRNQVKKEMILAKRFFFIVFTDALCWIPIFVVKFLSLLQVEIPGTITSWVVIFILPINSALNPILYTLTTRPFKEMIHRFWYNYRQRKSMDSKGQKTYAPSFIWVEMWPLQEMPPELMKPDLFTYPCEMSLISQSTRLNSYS
Excerpt: as §1

human LGR7 [2] = target: T3, human LGR7; test: cell-based or functional assay
rat GPCR135 [3] = target: T4, rat GPCR135 (rat, UniProt Q5Y987 29-469); test: autoradiography, displacement of 125I-R3/I5 from endogenous GPCR135 in rat brain sections
rat LGR7 = target: T5, rat LGR7 (rat, UniProt Q6R6I6 1-758); test: radioligand competition, 125I-relaxin-2 tracer, COS-7 cells transiently expressing rat LGR7
T5 construct: whole, on cells; also called recombinant rat LGR7
T5 sequence (looked up): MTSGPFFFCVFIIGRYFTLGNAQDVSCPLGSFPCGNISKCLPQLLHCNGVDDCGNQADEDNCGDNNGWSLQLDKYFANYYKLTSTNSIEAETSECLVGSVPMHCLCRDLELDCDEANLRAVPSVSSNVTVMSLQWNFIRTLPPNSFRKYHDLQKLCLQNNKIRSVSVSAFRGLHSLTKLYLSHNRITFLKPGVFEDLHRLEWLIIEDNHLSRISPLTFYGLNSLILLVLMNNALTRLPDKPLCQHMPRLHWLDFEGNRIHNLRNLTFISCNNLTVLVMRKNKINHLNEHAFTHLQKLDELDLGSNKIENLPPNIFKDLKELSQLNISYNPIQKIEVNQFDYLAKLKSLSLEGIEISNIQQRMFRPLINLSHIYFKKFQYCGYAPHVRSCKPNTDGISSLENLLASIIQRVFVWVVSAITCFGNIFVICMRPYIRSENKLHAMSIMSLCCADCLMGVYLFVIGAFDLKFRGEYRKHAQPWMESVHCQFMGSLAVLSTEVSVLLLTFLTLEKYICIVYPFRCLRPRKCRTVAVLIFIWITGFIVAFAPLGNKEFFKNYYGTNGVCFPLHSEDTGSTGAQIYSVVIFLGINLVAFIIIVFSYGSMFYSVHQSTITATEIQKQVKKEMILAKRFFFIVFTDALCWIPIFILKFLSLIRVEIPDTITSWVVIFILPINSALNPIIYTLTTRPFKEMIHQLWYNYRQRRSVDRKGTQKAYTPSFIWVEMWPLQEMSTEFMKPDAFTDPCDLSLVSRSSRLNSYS
Excerpt: FIG. 3 illustrates that R3(BΔ23-27)R/I5 is bound by recombinant rat GPCR135 with high affinity, but not by rat LGR7. COS-7 cells transiently expressing recombinant rat GPCR135 or LGR7 were used to characterize the binding affinity of rat GPCR135 (A) and LGR7 for (B) R3(BΔ23-27)R/I5. ¹²⁵I-R3/I5 was used as the tracer for GPCR135 and ¹²⁵I-relaxin-2 was used as the tracer for LGR7 binding. Various concentrations of R3(BΔ23-27)R/I5 were used as the competitor and unlabeled human relaxin-3 was used as the positive control in the binding assay.
as §1, with “The IC₅₀ values, which are the ligand concentrations that inhibited 50% of the maximum specific binding, were then calculated.” left out

rat GPCR135 [4] = target: T4, rat GPCR135; test: radioligand competition, 125I-R3/I5 tracer, COS-7 cells transiently expressing recombinant rat GPCR135
human LGR7 [5] = target: T3, human LGR7; test: radioligand competition, 50 pM 125I-relaxin-2 tracer, COS-7 cells transiently expressing human LGR7; NA = no affinity was observed in radioligand binding assay
Excerpt: as §1

T2 sequence (Q8TDU9 whole entry): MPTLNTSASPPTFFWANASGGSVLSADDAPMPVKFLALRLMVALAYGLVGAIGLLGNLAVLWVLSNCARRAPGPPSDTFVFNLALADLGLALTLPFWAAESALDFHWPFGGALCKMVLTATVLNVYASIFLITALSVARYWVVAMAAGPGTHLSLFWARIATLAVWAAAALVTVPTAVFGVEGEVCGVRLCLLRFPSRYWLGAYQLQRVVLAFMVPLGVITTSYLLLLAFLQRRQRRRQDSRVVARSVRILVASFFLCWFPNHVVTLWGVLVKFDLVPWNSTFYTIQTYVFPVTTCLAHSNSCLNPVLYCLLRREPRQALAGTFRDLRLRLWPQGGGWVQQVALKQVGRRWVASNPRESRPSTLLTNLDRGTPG
T4 sequence (Q5Y987 entry or part of it): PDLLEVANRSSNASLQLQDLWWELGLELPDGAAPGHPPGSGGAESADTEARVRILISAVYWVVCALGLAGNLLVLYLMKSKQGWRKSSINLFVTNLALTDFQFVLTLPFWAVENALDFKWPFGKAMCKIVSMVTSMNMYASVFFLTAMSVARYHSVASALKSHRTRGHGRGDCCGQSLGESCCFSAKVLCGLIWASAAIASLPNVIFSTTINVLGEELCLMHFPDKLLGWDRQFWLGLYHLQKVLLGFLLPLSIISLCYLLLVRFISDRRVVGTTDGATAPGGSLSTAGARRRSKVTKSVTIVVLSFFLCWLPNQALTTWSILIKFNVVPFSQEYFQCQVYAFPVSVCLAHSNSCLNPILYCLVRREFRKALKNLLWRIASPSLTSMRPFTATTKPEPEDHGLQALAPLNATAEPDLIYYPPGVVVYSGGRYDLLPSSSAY

B1: R3(BΔ23-27)R (peptide)
chain 1: RAAPYGVRLCGREFIRAVIFTCR
chain 2: DVLAGLSSSCCKWGCSKSEISSLC
notes: probably a misprint
- IC50 (human GPCR135): 0.95 nM
- IC50 (human GPCR142): 3.91 nM
- IC50 (human LGR7 [1]): ~200 nM

B2: R3(BΔ24-27) (peptide)
chain 1: RAAPYGVRLCGREFIRAVIFTCG
chain 2: DVLAGLSSSCCKWGCSKSEISSLC
- EC50, stimulation of β-gal expression in SK-N-MC/CRE-β-gal cells expressing human LGR7 (human LGR7 [2]): 4.3 nM
- IC50 (human GPCR135): 13.5 nM
- IC50 (human GPCR142): 18.9 nM
- IC50 (human LGR7 [1]): 8.9 nM

B3: R3(BΔ25-27) (peptide)
chain 1: RAAPYGVRLCGREFIRAVIFTCGG
chain 2: DVLAGLSSSCCKWGCSKSEISSLC
- EC50, stimulation of β-gal expression in SK-N-MC/CRE-β-gal cells expressing human LGR7 (human LGR7 [2]): 4.1 nM
- IC50 (human GPCR135): 9.5 nM
- IC50 (human GPCR142): 11.9 nM
- IC50 (human LGR7 [1]): 7.9 nM

B4: R3(BΔ23-27)R/I5 (peptide)
chain 1: RAAPYGVRLCGREFIRAVIFTCR
chain 2: EDLQTLCCTDGCSMTDLSALC
modifications: N-terminal pyro-Glu ("<E")
notes: Chimeric two-chain peptide; also called R3(Δ23-27)R/I5; R3(ΔB23-27)R/I5
- IC50 (rat GPCR135 [3]): 0.4 nM
- binding result (rat LGR7): no binding
- IC50 (rat GPCR135 [4]): 0.25 nM
- IC50 (human GPCR135): 0.67 nM
- IC50 (human GPCR142): 2.29 nM
- binding result (human LGR7 [5]): no binding

B5: R3(BΔ26-27) (peptide)
chain 1: RAAPYGVRLCGREFIRAVIFTCGGS
chain 2: DVLAGLSSSCCKWGCSKSEISSLC
- EC50, stimulation of β-gal expression in SK-N-MC/CRE-β-gal cells expressing human LGR7 (human LGR7 [2]): 3.3 nM
- IC50 (human GPCR135): 11.5 nM
- IC50 (human GPCR142): 9.5 nM
- IC50 (human LGR7 [1]): 6.3 nM
